Reference: US20050054047A1 (Amgen, published 2005)

How the values were obtained:
DR3 = target: T1, DR3 (UniProt Q93038 25-417, limits assumed); assay: slide binding on transfected COS cells, I-125 anti-leucine-zipper antibody, autoradiography
T1 construct: whole, on cells; also called Apo3; WSL-1
T1 sequence (looked up): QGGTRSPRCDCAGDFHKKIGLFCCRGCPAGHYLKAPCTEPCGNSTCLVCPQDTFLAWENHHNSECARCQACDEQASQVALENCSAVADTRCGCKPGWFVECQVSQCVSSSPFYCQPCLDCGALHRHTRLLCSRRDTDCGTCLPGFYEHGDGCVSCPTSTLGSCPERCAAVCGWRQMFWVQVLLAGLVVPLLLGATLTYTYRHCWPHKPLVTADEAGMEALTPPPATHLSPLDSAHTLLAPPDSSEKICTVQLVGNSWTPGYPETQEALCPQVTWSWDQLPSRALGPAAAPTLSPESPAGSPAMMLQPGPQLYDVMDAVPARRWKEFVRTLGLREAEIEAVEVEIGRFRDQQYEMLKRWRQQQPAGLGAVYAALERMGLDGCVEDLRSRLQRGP
Procedure: (§1) Slides of COS cells were transfected with expression vectors containing TWEAKR, DR3, or vector without insert (control). After two days the cells were incubated with concentrated supernatants from CV-1 cells transfected with a vector encoding the leucine zipper TWEAK extracellular domain fusion protein. One hour later the cells were washed and probed with an I-125 labeled antibody against the leucine-zipper domain. The slides were washed, fixed, and autoradiography was performed using x-ray film. The TWEAKR transfected cells bound significant amounts of TWEAK. […] This experiment confirmed that the TWEAKR polypeptide identified in part A above, rather than DR3, is the major receptor for TWEAK. After discovery of the functional TWEAK receptor, other investigators also reported that DR3 is not the major receptor for TWEAK (Kaptein et al., FEBS Lett., 485(2-3): 135, 2000. The TWEAK-TWEAKR binding interaction was further characterized by Scatchard analysis.

human TWEAK receptor = target: T2, human TWEAK receptor (human, UniProt Q9NP84 28-129); assay: as above
T2 construct: Expressed on COS cells from an expression vector; The entry includes the signal peptide
T2 sequence: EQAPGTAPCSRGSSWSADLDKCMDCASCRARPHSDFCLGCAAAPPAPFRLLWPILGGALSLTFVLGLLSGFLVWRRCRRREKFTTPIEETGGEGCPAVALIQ
Procedure: as §1

B1: leucine zipper TWEAK extracellular domain fusion protein (ligand)
chain: not shown
notes: Used as concentrated supernatant from transfected CV-1 cells; also called LZ-TWEAK; pDC409-LZ-TWEAK product
B1: no binding (DR3); binds (human TWEAK receptor).
